Data reported in publication PMC2563026.

Experiments:
[1] = target: CXCR4, endogenous on feline cells (feline (endogenous in MCC)) (UniProt P56498)
[2] = target: CXCR4, endogenous on feline cells (feline (endogenous in MCC)) (UniProt P56498); assay: flow cytometry on cells; MCC cells stably transduced with fCD134, the CRD1 chimera, human CD134 or vector only were incubated with Fc-SU fusion proteins; bound protein detected with PE-anti-human IgG Fc; 10,000 events
[3] = target: chimeric receptor bearing feline CD134 CRD1 in the context of human CD134, on cells (feline | human)

UniProt P56498, sequence (P56498 whole entry, the tested form may be a part): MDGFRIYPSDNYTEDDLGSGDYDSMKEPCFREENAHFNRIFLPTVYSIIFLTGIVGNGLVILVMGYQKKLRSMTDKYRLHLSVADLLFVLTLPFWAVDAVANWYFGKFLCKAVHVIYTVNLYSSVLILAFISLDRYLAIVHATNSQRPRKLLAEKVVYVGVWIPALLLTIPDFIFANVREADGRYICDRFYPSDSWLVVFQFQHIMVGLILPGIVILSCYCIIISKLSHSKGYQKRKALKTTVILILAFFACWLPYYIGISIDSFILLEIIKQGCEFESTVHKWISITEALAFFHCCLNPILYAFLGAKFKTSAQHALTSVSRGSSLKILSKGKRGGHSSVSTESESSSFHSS

## FIV CPG41 Env, wild type, on HIV(FIV) luciferase pseudotypes (natural protein)
[1]
  entry of HIV(FIV) pseudotypes into MYA-1 cells with the CXCR4 antagonist AMD3100 at 0.1 μg/ml, fold reduction: 5 fold

## FIV GL8 Env SU-Fc fusion protein, wild type
[2]
  percent binding of Fc-SU (human CD134-expressing MCC cells): 17.2%

## FIV GL8 Env T271I, on HIV(FIV) luciferase pseudotypes (natural protein)
[3]
  infection of MCC-CRD1 cells by HIV(FIV) luciferase pseudotypes, fold reduction: 27 fold

## FIV GL8 Env Δ2N double mutant (T271I and N342Y), on HIV(FIV) luciferase pseudotypes (natural protein)
[3]
  infection of MCC-CRD1 cells by HIV(FIV) luciferase pseudotypes, fold reduction: 47 fold

## FIV GL8 Env, wild type, on HIV(FIV) luciferase pseudotypes (natural protein)
[3]
  infection of MCC-CRD1 cells by HIV(FIV) luciferase pseudotypes, fold less efficient than on MCC cells expressing CD134: 300 fold
[1]
  entry of HIV(FIV) pseudotypes into MYA-1 cells with the CXCR4 antagonist AMD3100 at 0.1 μg/ml, fold reduction: 100 fold
